The record followed here is patent publication US20110118131A1 (published 2011).

The labels stand for the following.
B1: XPA23 light chain F94D (Fab, V domains shown)
VH: EVQLLESGGGLVQPGGSLRLSCAASGFTFSKYFMFWVRQAPGKGLEWVSVISPSGGMTRYADSVKGRFTISRDNSKNTLYLQMNSLRAEDTAVYYCARVGYGGNSDYWGQGTLVTVSS
VL: DIQMTQSPSSVSASVGDRLTIICRASQDINRWLAWYQQTPGNAPKLLIHSATSLQSGVPSRFSGSGSGTDFTLTINSLQPEDFATYYCQQADSDPLTFGGGTKVEIK
B2: XPA23 light chain N30D (Fab, V domains shown)
VH: B1 VH
VL: B1 VL with N30D, D94F
B3: XPA23 light chain N30F (Fab, V domains shown)
VH: B1 VH
VL: B1 VL with N30F, D94F
B4: XPA23 light chain H49I (Fab, V domains shown)
VH: B1 VH
VL: B1 VL with H49I, D94F
B5: XPA23 light chain F94H (Fab, V domains shown)
VH: B1 VH
VL: B1 VL with D94H
B6: XPA23 light chain L96Q (Fab, V domains shown)
VH: B1 VH
VL: B1 VL with D94F, L96Q
B7: XPA23 light chain L96D (Fab, V domains shown)
VH: B1 VH
VL: B1 VL with D94F, L96D
B8: XPA23 light chain H49T (Fab, V domains shown)
VH: B1 VH
VL: B1 VL with H49T, D94F
B9: XPA23 light chain H49E (Fab, V domains shown)
VH: B1 VH
VL: B1 VL with H49E, D94F
B10: XPA23 light chain H49N (Fab, V domains shown)
VH: B1 VH
VL: B1 VL with H49N, D94F
B11: XPA23 light chain L96H (Fab, V domains shown)
VH: B1 VH
VL: B1 VL with D94F, L96H
B12: XPA23 light chain F94K (Fab, V domains shown)
VH: B1 VH
VL: B1 VL with D94K
B13: XPA23 light chain H49F (Fab, V domains shown)
VH: B1 VH
VL: B1 VL with H49F, D94F
B14: XPA23 light chain F94R (Fab, V domains shown)
VH: B1 VH
VL: B1 VL with D94R
B15: XPA23 light chain L96N (Fab, V domains shown)
VH: B1 VH
VL: B1 VL with D94F, L96N
B16: XPA23 light chain H49L (Fab, V domains shown)
VH: B1 VH
VL: B1 VL with H49L, D94F
B17: XPA23 light chain N30E (Fab, V domains shown)
VH: B1 VH
VL: B1 VL with N30E, D94F
B18: XPA23 light chain L96W (Fab, V domains shown)
VH: B1 VH
VL: B1 VL with D94F, L96W
B19: XPA23 light chain H49V (Fab, V domains shown)
VH: B1 VH
VL: B1 VL with H49V, D94F
B20: XPA23 light chain F94W (Fab, V domains shown)
VH: B1 VH
VL: B1 VL with D94W
B21: XPA23 light chain H49S (Fab, V domains shown)
VH: B1 VH
VL: B1 VL with H49S, D94F
B22: XPA23 light chain H49Y (Fab, V domains shown)
VH: B1 VH
VL: B1 VL with H49Y, D94F
B23: XPA23 light chain N30A (Fab, V domains shown)
VH: B1 VH
VL: B1 VL with N30A, D94F
B24: XPA23 light chain H49A (Fab, V domains shown)
VH: B1 VH
VL: B1 VL with H49A, D94F
B25: XPA23 light chain L96E (Fab, V domains shown)
VH: B1 VH
VL: B1 VL with D94F, L96E
B26: XPA23 light chain L96K (Fab, V domains shown)
VH: B1 VH
VL: B1 VL with D94F, L96K
B27: XPA23 light chain F94S (Fab, V domains shown)
VH: B1 VH
VL: B1 VL with D94S
B28: XPA23 light chain L96S (Fab, V domains shown)
VH: B1 VH
VL: B1 VL with D94F, L96S
B29: XPA23 light chain H49W (Fab, V domains shown)
VH: B1 VH
VL: B1 VL with H49W, D94F
B30: XPA23 light chain H49Q (Fab, V domains shown)
VH: B1 VH
VL: B1 VL with H49Q, D94F
B31: XPA23 light chain H49R (Fab, V domains shown)
VH: B1 VH
VL: B1 VL with H49R, D94F
B32: XPA23 light chain H49D (Fab, V domains shown)
VH: B1 VH
VL: B1 VL with H49D, D94F
B33: XPA23 light chain H49G (Fab, V domains shown)
VH: B1 VH
VL: B1 VL with H49G, D94F
B34: XPA23 light chain H49K (Fab, V domains shown)
VH: B1 VH
VL: B1 VL with H49K, D94F
B35: XPA23 light chain F94Y (Fab, V domains shown)
VH: B1 VH
VL: B1 VL with D94Y
B36: XPA23 light chain H49P (Fab, V domains shown)
VH: B1 VH
VL: B1 VL with H49P, D94F
B37: XPA23 light chain L96Y (Fab, V domains shown)
VH: B1 VH
VL: B1 VL with D94F, L96Y
B38: XPA23 light chain L96R (Fab, V domains shown)
VH: B1 VH
VL: B1 VL with D94F, L96R
B39: XPA23 light chain N30G (Fab, V domains shown)
VH: B1 VH
VL: B1 VL with N30G, D94F
B40: XPA23 light chain F94Q (Fab, V domains shown)
VH: B1 VH
VL: B1 VL with D94Q
B41: XPA23 light chain F94E (Fab, V domains shown)
VH: B1 VH
VL: B1 VL with D94E
B42: XPA23 light chain L96F (Fab, V domains shown)
VH: B1 VH
VL: B1 VL with D94F, L96F
B43: XPA23 light chain F94N (Fab, V domains shown)
VH: B1 VH
VL: B1 VL with D94N

Where a chain is given by its changes, count along the chain named. Names may count otherwise.

The assay addresses T1, IL-1β (UniProt P01584 117-269).
T1 construct: Antigen immobilised on the Biacore chip
As to the kind of experiment: Biacore, periplasmic extract.
As for B1, the binding result is on record as “no binding”.
Regarding B2, the “fold difference in affinity vs original” value is 0.81 fold.
Same read-out and setting: in the case of B3 it was 1.59 fold.
For B4, the binding result is listed as “no binding”.
As to B5, the binding result is “no binding”.
In the case of B6, the “fold difference in affinity vs original” value is 0.21 fold.
With B7, the binding result was “no binding”.
The same measure, in the same setting: in the case of B8 it was “no binding”.
Same read-out and setting: the result for B9 reads “no binding”.
On to B10, for which the “fold difference in affinity vs original” value worked out at 0.31 fold.
On the same count and under the same terms, the result for B11 reads 0.07 fold.
B12: the binding result is on record as “no binding”.
As to B13, the “fold difference in affinity vs original” value is 0.5 fold.
In the case of B14, the binding result was “no binding”.
On to B15, for which the “fold difference in affinity vs original” value was determined as 0.06 fold.
For B16, the “fold difference in affinity vs original” value is 0.07 fold.
Still for that read-out and setting: the result for B17 reads 0.64 fold; that for B18, 4.49 fold.
B19: the binding result is reported as “no binding”.
On the same count and under the same terms, in the case of B20 it was “no binding”.
B21: the “fold difference in affinity vs original” value was 0.14 fold.
As to B22, the “fold difference in affinity vs original” value turned out to be 0.52 fold.
Still for that read-out and setting: the result for B23 reads 0.61 fold; that for B24, 0.23 fold.
As for B25, the binding result is given as “no binding”.
For B26, the binding result is recorded as “no binding”.
The same measure, in the same setting: the result for B27 reads “no binding”.
For B28, the “fold difference in affinity vs original” value was determined as 0.23 fold.
Same read-out and setting: the result for B29 reads 0.21 fold.
For the molecule B30, the binding result was “no binding”.
Regarding B31, the “fold difference in affinity vs original” value was found to be 0.21 fold.
Turning to B32, the “fold difference in affinity vs original” value is 0.11 fold.
For B33, the binding result is “no binding”.
For B34, the “fold difference in affinity vs original” value was 0.1 fold.
For the molecule B35, the binding result is recorded as “no binding”.
In the case of B36, the “fold difference in affinity vs original” value was found to be 0.86 fold.
Regarding B37, the binding result is recorded as “no binding”.
Same read-out and setting: in the case of B38 it was “no binding”.
Consider B39, for which the “fold difference in affinity vs original” value is 0.71 fold.
Turning to B40, the binding result is reported as “no binding”.
In the case of B41, the binding result is reported as “no binding”.
On to B42, for which the “fold difference in affinity vs original” value is 0.28 fold.
As to B43, the binding result is recorded as “no binding”.
